Data as given in US20050142101A1.

What was measured:
[1] = target: CXCL12 (SDF-1α) (Homo sapiens (Human)) (UniProt P48061)
CCL14[9-74] (human) = CCL14[9-74] (human) (UniProt Q16627)
[2] = target: CCL11 (eotaxin) (Homo sapiens (Human)) (UniProt P51671)

CD26/DPP IV processing in vitro, MALDI mass spectrometry (time to complete processing) [1]: 10 min
CD26/DPP IV processing in vitro, MALDI mass spectrometry (time to complete processing) (CCL14[9-74] (human)): 12 h
CD26/DPP IV processing in vitro, MALDI mass spectrometry (time to complete processing) [2]: 1 h
Substance: porcine kidney DPP IV/CD26 (from UniProt P22411) (enzyme)
